Patent US20070020327A1
Like-named read-outs stand apart in the source and are kept apart here.

Tests used:
HLA-A*0301 (human) [1] = assay: competition with 125I-labelled standard peptide on purified HLA-A*0301, gel filtration
HLA-A*0301 (human) [2] = assay: competition with 125I-labeled standard peptide for purified HLA-A*0301, gel filtration
HLA-A*1101 (human) [3] = assay: competition with 125I-labelled standard peptide for purified HLA-A*1101, gel filtration
HLA-A*6802 (human) = assay: inhibition of 125I-labelled probe peptide binding to purified HLA, gel filtration
HLA-A*0201 (human) [4] = assay: as above
HLA-A*0203 (human) [5] = assay: as above
HLA-A*0202 (human) [6] = assay: as above
HLA-A*0201 (human) [7] = assay: inhibition of 125I-labelled probe peptide binding to purified HLA; gel filtration; settings: remark: other sources report otherwise
HLA-A*0203 (human) [8] = assay: as above; settings: remark: other sources report otherwise
HLA-A*0202 (human) [9] = assay: as above; settings: remark: other sources report otherwise
HLA-A*0101 (human) = assay: competition with 125I-labelled standard peptide for purified HLA-A*0101, gel filtration
HLA-A*0206 (human) [10] = assay: competitive inhibition of 125I-labelled standard peptide binding to purified HLA, gel filtration
HLA-A*0201 (human) [11] = assay: as above
HLA-A*0203 (human) [12] = assay: as above
HLA-A*0202 (human) [13] = assay: as above
HLA-A*0202 (human) [14] = assay: competition with 125I-labelled standard peptide 941.01 for purified HLA-A*0202, gel filtration
HLA-A*0206 (human) [15] = assay: competition with 125I-labelled standard peptide 941.01 for purified HLA-A*0206, gel filtration
HLA-A*0201 (human) [16] = assay: competition with 125I-labelled standard peptide 941.01 for purified HLA-A*0201, gel filtration
HLA-A*0206 (human) [17] = assay: inhibition of 125I-labelled probe peptide binding to purified HLA, gel filtration
HLA-A*1101 (human) [18] = assay: competition with a 125I-labelled standard peptide for purified HLA-A*1101, gel filtration; settings: scale: ratio
HLA-A*0301 (human) [19] = assay: competition with 125I-labelled standard peptide for purified HLA-A*0301, gel filtration; ratio to the A*0301 standard peptide 941.12 [..] (11 nM)
HLA-A*0206 (human) [20] = assay: competition with 125I standard peptide for purified HLA; gel filtration
HLA-A*0203 (human) [21] = assay: as above
HLA-A*0201 (human) [22] = assay: competitive inhibition of 125I-labelled standard peptide binding to purified HLA, gel filtration; ratio = IC50 standard / IC50 test peptide; settings: remark: other sources report otherwise
HLA-A*0203 (human) [23] = assay: as above; settings: remark: other sources report otherwise
HLA-A*0301 (human) [24] = assay: competition with radiolabeled standard peptide on purified HLA-A*0301, gel filtration; settings: scale: ratio
HLA-A*0201 (human) [25] = assay: competition with 125I standard peptide for purified HLA; gel filtration
HLA-A*0202 (human) [26] = assay: as above
[27] = remark: other sources report otherwise

Binder: LLSYPNKTH (modifications not checked) [… (PSM, position 116)]
- binding affinity ratio (IC50 of standard peptide / IC50 of test peptide) (HLA-A*0301 (human) [1]): 0.0006

Binder: NFTEIASKF (modifications not checked) [… (PSM, position 638, 9 amino acids)]
- binding affinity ratio (IC50 of standard peptide / IC50 of test peptide) (HLA-A*0301 (human) [2]): 0.0005

Binder: MSLLKNRFLR (modifications not checked) [… (PSA, position 99, 10 amino acids)]
- binding affinity ratio (IC50 of standard peptide / IC50 of test peptide) (HLA-A*0301 (human) [2]): 0.007

Binder: TLVFRHGDR (modifications not checked) [PAP 39 …]
- binding affinity ratio (IC50 of standard peptide / IC50 of test peptide) (HLA-A*1101 (human) [3]): 0.0002

Binder: SLQCVSLHL (modifications not checked) [Peptide 60.0191 (HuK2.170) …]
- IC50 (HLA-A*6802 (human); [27]): 2580 nM
- IC50 (HLA-A*0201 (human) [4]; [27]): 500 nM
- IC50 (HLA-A*0203 (human) [5]; [27]): 417 nM
- IC50 (HLA-A*0202 (human) [6]; [27]): 51 nM

Binder: TAAHCIRNK (modifications not checked) [PSA 58 …]
- binding affinity ratio (IC50 of standard peptide / IC50 of test peptide) (HLA-A*1101 (human) [3]; [27]): 0.014

Binder: GVSIWNPIV (modifications not checked) [peptide 60.0207 (PAP.128.V9)]
- IC50 (HLA-A*0201 (human) [7]): 455 nM
- IC50 (HLA-A*0203 (human) [8]): 909 nM
- IC50 (HLA-A*0202 (human) [9]): 269 nM

Binder: TLRGAVEPDR (modifications not checked) [PSM 361 …]
- binding affinity ratio (IC50 of standard peptide / IC50 of test peptide) (HLA-A*1101 (human) [3]): 0.0002

Binder: WGEVKRQIY (modifications not checked) [… (PSM, position 725)]
- binding affinity ratio (IC50 of standard peptide / IC50 of test peptide) (HLA-A*0101 (human)): 0.001

Binder: LLEKMGGSA (modifications not checked) [… (PSM, position 305)]
- binding affinity ratio (IC50 of standard peptide / IC50 of test peptide) (HLA-A*0301 (human) [1]): 0.0006

Binder: ITSWGSEPCA (modifications not checked)
- binding affinity ratio (ratio to standard peptide) (HLA-A*0206 (human) [10]): 0.0001
- binding affinity ratio (ratio to standard peptide) (HLA-A*0201 (human) [11]): 0.0003
- binding affinity ratio (ratio to standard peptide) (HLA-A*0203 (human) [12]): 0.003
- binding affinity ratio (ratio to standard peptide) (HLA-A*0202 (human) [13]): 0.0036

Binder: SIALSVGCT (modifications not checked) [… (Kallikrein, position 7)]
- binding affinity ratio (IC50 of standard peptide / IC50 of test peptide) (HLA-A*0202 (human) [14]): 0.0006
- binding affinity ratio (IC50 of standard peptide / IC50 of test peptide) (HLA-A*0206 (human) [15]): 0.0006
- binding affinity ratio (IC50 of standard peptide / IC50 of test peptide) (HLA-A*0201 (human) [16]): -0.0001

Binder: GMPEGDLVY (modifications not checked) [PSM 168 peptide …]
- binding affinity ratio (IC50 of the standard peptide / IC50 of the test peptide) (HLA-A*1101 (human) [3]): 0.0002

Binder: LLHETDSAVA (modifications not checked) [… (PSM, position 4)]
- binding affinity ratio (IC50 of standard peptide / IC50 of test peptide) (HLA-A*0301 (human) [1]): 0.0005

Binder: SLQCVSLHLL (modifications not checked) [Peptide 1419.66 (HuK2.170) …]
- IC50 (HLA-A*0206 (human) [17]; [27]): 446 nM
- IC50 (HLA-A*6802 (human); [27]): 5000 nM
- IC50 (HLA-A*0201 (human) [4]; [27]): 263 nM
- IC50 (HLA-A*0202 (human) [6]; [27]): 4.9 nM

Binder: DIESKVDPSK (modifications not checked) [PSM 714 peptide …]
- binding affinity ratio (HLA-A*1101 (human) [18]): 0.0002
- binding affinity ratio (IC50 of standard peptide / IC50 of test peptide) (HLA-A*0301 (human) [19]): 0.0003

Binder: DVLLSYPNK (modifications not checked) [PSM 114 peptide …]
- binding affinity ratio (HLA-A*1101 (human) [18]): 0.001

Binder: ALDVYNGLL (modifications not checked) [peptide 1177.02 (PAP.299)]
- IC50 (HLA-A*0201 (human) [7]): 73 nM
- IC50 (HLA-A*0203 (human) [8]): 256 nM

Binder: SLQCVSLHLV (modifications not checked) [Peptide 1418.52 (HuK2.170.V10) …]
- IC50 (HLA-A*0206 (human) [17]): 5.2 nM
- IC50 (HLA-A*6802 (human)): 205 nM
- IC50 (HLA-A*0201 (human) [4]): 13 nM
- IC50 (HLA-A*0203 (human) [5]): 2.8 nM
- IC50 (HLA-A*0202 (human) [6]): 6.3 nM

Binder: NLLHETDSA (modifications not checked) [… (PSM, position 3, 9 amino acids)]
- binding affinity ratio (IC50 of standard peptide / IC50 of test peptide) (HLA-A*0301 (human) [2]): 0.0006

Binder: HLLSNDMCARV (modifications not checked) [Peptide 1418.67 (HuK2.177.V11) …]
- IC50 (HLA-A*0206 (human) [17]; [27]): 37 nM
- IC50 (HLA-A*6802 (human); [27]): 860 nM
- IC50 (HLA-A*0203 (human) [5]; [27]): 5.3 nM
- IC50 (HLA-A*0202 (human) [6]; [27]): 1.3 nM

Binder: LSLLSLYGIH (modifications not checked) [… (PAP, position 241)]
- binding affinity ratio (IC50 of standard peptide / IC50 of test peptide) (HLA-A*0301 (human) [1]): 0.0003

Binder: ITDVVKVL (modifications not checked) [ITDVVKVL (Kallikrein, position 132)]
- binding affinity ratio (ratio to standard peptide) (HLA-A*0206 (human) [10]): -0.0001
- binding affinity ratio (ratio to standard peptide) (HLA-A*0201 (human) [11]): 0.0001
- binding affinity ratio (ratio to standard peptide) (HLA-A*0203 (human) [12]): 0.0001
- binding affinity ratio (ratio to standard peptide) (HLA-A*0202 (human) [13]): 0.001

Binder: LTFFWLDRSV (modifications not checked) [Peptide 1418.23 … (PAP.21.T2)]
- IC50 (HLA-A*0206 (human) [20]): 43 nM
- IC50 (HLA-A*0203 (human) [21]): 9.6 nM

Binder: TGQVFQVSH (modifications not checked) [PSA 82 …]
- binding affinity ratio (IC50 of standard peptide / IC50 of test peptide) (HLA-A*1101 (human) [3]): 0.0002

Binder: SLHLLSNDMCV (modifications not checked) [Peptide 1418.66 (HuK2.175.V11) …]
- IC50 (HLA-A*0206 (human) [17]; [27]): 2310 nM
- IC50 (HLA-A*6802 (human); [27]): 2160 nM
- IC50 (HLA-A*0201 (human) [4]; [27]): 8.6 nM
- IC50 (HLA-A*0203 (human) [5]; [27]): 10 nM
- IC50 (HLA-A*0202 (human) [6]; [27]): 0.8 nM

Binder: DTFPTDPIK (modifications not checked) [PAP 51 peptide …]
- binding affinity ratio (HLA-A*1101 (human) [18]): 0.0001

Binder: VLSIALSV (modifications not checked) [VLSIALSV (Kallikrein, position 5)]
- binding affinity ratio (HLA-A*0201 (human) [22]): 0.005
- binding affinity ratio (HLA-A*0203 (human) [23]): 0.02

Binder: LVFRHGDR (modifications not checked) [LVFRHGDR (PAP, position 40, 8 amino acids)]
- binding affinity ratio (IC50 of standard peptide / IC50 of test peptide) (HLA-A*0301 (human) [2]): 0.0003

Binder: DMSLLKNR (modifications not checked) [PSA 98 peptide DMSLLKNR]
- binding affinity ratio (HLA-A*1101 (human) [18]): 0.0001
- binding affinity ratio (IC50 of standard peptide / IC50 of test peptide) (HLA-A*0301 (human) [19]): 0.0003

Binder: FMLCAGLWV (modifications not checked) [Peptide 1418.22 … (HuK2.195.V9)]
- IC50 (HLA-A*0206 (human) [20]; [27]): 51 nM

Binder: ITSWGSEPCAL (modifications not checked)
- binding affinity ratio (ratio to standard peptide) (HLA-A*0206 (human) [10]; [27]): 0.0001
- binding affinity ratio (ratio to standard peptide) (HLA-A*0201 (human) [11]; [27]): 0.001
- binding affinity ratio (ratio to standard peptide) (HLA-A*0203 (human) [12]; [27]): 0.0096
- binding affinity ratio (ratio to standard peptide) (HLA-A*0202 (human) [13]; [27]): 0.012

Binder: EIASKFSER (modifications not checked) [PSM 641 peptide …]
- binding affinity ratio (HLA-A*1101 (human) [18]): 0.0002

Binder: ITSWGPEPCA (modifications not checked) [… (Kallikrein, position 226)]
- binding affinity ratio (ratio to standard peptide) (HLA-A*0206 (human) [10]; [27]): 0.0005
- binding affinity ratio (ratio to standard peptide) (HLA-A*0201 (human) [11]; [27]): 0.0003
- binding affinity ratio (ratio to standard peptide) (HLA-A*0202 (human) [13]; [27]): 0.01

Binder: VLPFDCRDYA (modifications not checked) [PSM 592 peptide …]
- binding affinity ratio (HLA-A*0301 (human) [24]): 0.0005

Binder: CSPSCPLER (modifications not checked) [PAP 347 peptide …]
- binding affinity ratio (IC50 of standard peptide / IC50 of test peptide) (HLA-A*0301 (human) [19]): 0.004

Binder: CSGKIVIARY (modifications not checked) [PSM 196 peptide …]
- binding affinity ratio (IC50 of standard peptide / IC50 of test peptide) (HLA-A*0301 (human) [19]; [27]): 0.06

Binder: LLPPYASCH (modifications not checked) [… (PAP, position 306)]
- binding affinity ratio (IC50 of standard peptide / IC50 of test peptide) (HLA-A*0301 (human) [1]): 0.001

Binder: DALFDIESK (modifications not checked) [PSM 710 peptide …]
- binding affinity ratio (IC50 of standard peptide / IC50 of test peptide) (HLA-A*0301 (human) [19]): 0.0006

Binder: SLSLGFLFLV (modifications not checked) [Peptide 1419.52 … (PAP.13.V10)]
- IC50 (HLA-A*0206 (human) [20]): 42 nM
- IC50 (HLA-A*0201 (human) [25]): 1.8 nM
- IC50 (HLA-A*0203 (human) [21]): 17 nM
- IC50 (HLA-A*0202 (human) [26]): 3.9 nM
